Data published in patent US20190240316A1 (VANDERBILT UNIVERSITY, published 2019).

B1: motavizumab (antibody, V domains shown)
VH: QVTLRESGPALVKPTQTLTLTCTFSGFSLSTAGMSVGWIRQPPGKALEWLADIWWDDKKHYNPSLKDRLTISKDTSKNQVVLKVTNMDPADTATYYCARDMIFNFYFDVWGQGTTVTVSS
VL: DIQMTQSPSTLSASVGDRVTITCSASSRVGYMHWYQQKPGKAPKLLIYDTSKLASGVPSRFSGSGSGTEFTLTISSLQPDDFATYYCFQGSGYPFTFGGGTKVEIK
B2: mAb 12I1 (antibody, V domains shown)
VH: QVQLVQSGGGVVQPGQSLRLSCAASGFSFSDYPIHWVRQAPGKGLEWVAGISYYGSNKFYADSVRGRFTISRDTSKNTFNLQMNSLKSEDTAVYYCARDGNPPRFLEYFDYWGQGTLVTVSS
VL: QPVVTQPRSVSGSPGQSVTISCTGSSSDVGGYNFVSWYRHHPGKAPKLLIYHVTKRPSGVPDRFSGSKSGNTASLTISGLQAEDEADYYCCSYAGSYTYVLFGGGTKLTVL
notes: Non-neutralizing, antigenic site VII
B3: mAb 13A8 (antibody, V domains shown)
VH: QVQLVESGGGVVQPGKSLRLSCAASGYIFSSYDMHWVRQAPGKGLEWVAVISFDGTTQHYADSVRGRFTVSRDNSQNTVFLQMNSLRPEDTAVYYCVKEYVIVSTFFDYWGQGTLVTVSS
VL: DIVMTQSPSSLSASVGDRVTITCRASQGIRNALGWYQHKPGKAPKVLIYAASRLQSGVPSRFSGSGSGTDFTLTISSLQPEDFATYYCLQDFNYPWTFGHGTKVEIK
B4: mAb 14C16 (antibody, V domains shown)
VH: QVQLGESGPALVKPTQTLTLTCTFSGFSLSTSEMCVSWIRQPPGKALEWLALIDWDGDKFFSTSLQSRLTISKSPSNNQVVLTMTNMDPVDSGTYFCARSTVRRSSGYYYYVLDVWGQGTLVTVSS
VL: QIVMTQSPSSLSASVGDRVTISCRASQSIGTYVNWYQHKPGKAPKVLISGASNLHSGVPSRFSGSGSGTDFTLTISSLQPEDFATYYCQQSYSPLTFGGGTTVEMK
B5: mAb 9J5 (antibody, V domains shown)
VH: QVQLVQSGAEVKKPGSSVTVSCKASGGSFTNYAFSWVRQAPGQGLEWMGGIIPLLNMPNYAQKFRGRVTISADQSTTTAYMELSRLTSEDTAIYFCARGGQVGDFIVLRHFDSWGQGTLVTVSS
VL: TLSCRASESVSNYLAWYQQKPGQTPRLLIYGASTRATGIPARFSGSGSGSEFTLTISSLQSEDFAVYYCQQYNDWPRFSFGQGTKLEIK
B6: mAb 10F13 (antibody, V domains shown)
VH: QVQLVQSGGGVVQPGRSLRLSCAASGFPFRIYSMHWVRQAPGKGLEWVALISYDGTNKQYADSVNGRFTISRDNSENTMYLQMNSLRPEDTAIYYCATDIVELVTATDYWGQGTLVTVSS
VL: AVVTQSPGTLSLSPGDRATLSCRASQSVSTSLGWYQQKPGQSPRLLIYGTSRRATGVPDRFSGSGSETDFTLTISRLEPEDFSVYYCQQYGSSPYTFGQGTRLEIK
notes: The printed light chain has an unusual N-terminal part
B7: mAb 14N4 (antibody, V domains shown)
VH: QVQLVESGGGLIQPGGSLRLSCAVSGFTVSSKYMTWVRQAPGKGLEWVSVIYGGGSTYYADSVVGRFTISRDNSKNTLYLQMNSLRAEDTAVYYCASRLGVRATTGDLDYWGQGTLVTVSS
VL: QIVMTQSPSTLSASVGDRVTITCRASQSISSWLAWYQQKPGKAPKLLIYDASSLESGVPSRFSGSGSGTEFTLTISSLQPDDFATYYCQQYNTYSWWTFGQGTKVEIK
B8: mAb 3J20 (antibody, V domains shown)
VH: EVQLVESGGGLVQPGGSLRLSCAASGFTFSSFTMNWVRQAPGKGLQWVSTISGSGGLTYYADSVKGRFTISRDNSKNTLSLQMNSLRAEDTAVYYCARDLEFTVTSYGGYYFEYWGQGTLVTVSS
VL: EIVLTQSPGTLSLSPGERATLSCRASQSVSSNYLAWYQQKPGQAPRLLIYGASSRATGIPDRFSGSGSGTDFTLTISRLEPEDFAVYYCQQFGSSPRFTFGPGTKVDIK
B9: mAb 4B6 (antibody, V domains shown)
VH: QVQLVQSGGGLAQPGRSLRLSCRASGFTFGDFNMNWFRQAPGKGLEWVGFIRRKAFGGATEYAASVKGRLTISRDDSKSIAYLQMNSLKTEDTAVYYCTRERGYVGSGGPFFDYWGQGTLVTVSS
VL: QAVVTQPPSVSGAPGQRVTISCTGSSSNIGAGYDVHWYQQLPGTAPKLLIYGDSNRPSGVPDRFSGSSSGTSASLAITGLQAEDEADYYCQSYDNSLSGSVFGTGTKVTVL
B10: mAb D25 (antibody, V domains shown)
VH: QVQLVQSGAEVKKPGSSVMVSCQASGGPLRNYIINWLRQAPGQGPEWMGGIIPVLGTVHYAPKFQGRVTITADESTDTAYIHLISLRSEDTAMYYCATETALVVSTTYLPHYFDNWGQGTLVTVSS
VL: DIQMTQSPSSLSAAVGDRVTITCQASQDIVNYLNWYQQKPGKAPKLLIYVASNLETGVPSRFSGSGSGTDFSLTISSLQPEDVATYYCQQYDNLPLTFGGGTKVEIKR

Biological target: T1, recombinant post-fusion RSV strain A2 F protein (human respiratory syncytial virus …, UniProt P03420 26-109; P03420 147-513)
T1 construct: Viral fusion glycoprotein, trimer of protomers (each cleaved into two disulfide-linked fragments); also called RSV A2; post-fusion RSV A2 F
T1 sequence (P03420 147-513, one chain of several): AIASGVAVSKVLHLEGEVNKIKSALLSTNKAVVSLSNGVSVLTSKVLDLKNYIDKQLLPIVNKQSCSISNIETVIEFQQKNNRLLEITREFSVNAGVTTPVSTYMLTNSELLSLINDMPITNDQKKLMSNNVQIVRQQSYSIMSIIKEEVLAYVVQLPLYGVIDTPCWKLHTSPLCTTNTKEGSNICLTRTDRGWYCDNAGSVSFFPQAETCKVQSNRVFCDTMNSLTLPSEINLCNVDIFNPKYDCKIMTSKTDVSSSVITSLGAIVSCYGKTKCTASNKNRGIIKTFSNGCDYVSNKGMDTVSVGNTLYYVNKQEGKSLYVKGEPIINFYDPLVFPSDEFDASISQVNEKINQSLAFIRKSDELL
Test: ELISA on coated antigen

Binder | EC50
B1 | 0.03 µg/mL
B2 | 0.026 µg/mL
B3 | 0.082 µg/mL
B4 | 0.019 µg/mL
B5 | 0.03 µg/mL
B6 | 0.017 µg/mL
B7 | 0.078 µg/mL
B8 | 0.084 µg/mL
B9 | 0.024 µg/mL

Biological target: T2, post-fusion F protein from RSV strain 18537 B (human respiratory syncytial virus …, UniProt P13843 26-109; P13843 147-513)
T2 construct: also called RSV 18537 B; RSV 18537 B post-fusion F
T2 sequence (P13843 26-109, chain 1 of 2): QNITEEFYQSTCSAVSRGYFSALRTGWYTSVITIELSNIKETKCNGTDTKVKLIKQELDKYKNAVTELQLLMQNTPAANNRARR
T2 sequence (P13843 147-513, chain 2 of 2): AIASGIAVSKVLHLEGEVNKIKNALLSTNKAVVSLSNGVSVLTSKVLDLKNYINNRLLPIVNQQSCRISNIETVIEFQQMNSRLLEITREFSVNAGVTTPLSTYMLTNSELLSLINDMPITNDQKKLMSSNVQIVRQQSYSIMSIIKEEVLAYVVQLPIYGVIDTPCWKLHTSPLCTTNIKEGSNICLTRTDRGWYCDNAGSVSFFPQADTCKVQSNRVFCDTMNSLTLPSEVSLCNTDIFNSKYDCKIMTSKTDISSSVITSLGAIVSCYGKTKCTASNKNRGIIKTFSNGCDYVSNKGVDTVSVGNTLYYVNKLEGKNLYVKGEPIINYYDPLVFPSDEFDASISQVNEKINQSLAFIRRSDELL
Test: ELISA on coated antigen

Binder | EC50
B1 | 0.035 µg/mL
B2 | 0.033 µg/mL
B3 | 0.064 µg/mL
B4 | 0.02 µg/mL
B5 | 0.04 µg/mL
B6 | 0.021 µg/mL
B7 | 0.057 µg/mL
B8 | 0.05 µg/mL
B9 | 0.024 µg/mL

Biological target: F protein on infectious RSV strain A2 (human respiratory syncytial virus …, UniProt P03420 26-574)
Test: cell-based or functional assay
Target sequence in this assay (P03420 26-574): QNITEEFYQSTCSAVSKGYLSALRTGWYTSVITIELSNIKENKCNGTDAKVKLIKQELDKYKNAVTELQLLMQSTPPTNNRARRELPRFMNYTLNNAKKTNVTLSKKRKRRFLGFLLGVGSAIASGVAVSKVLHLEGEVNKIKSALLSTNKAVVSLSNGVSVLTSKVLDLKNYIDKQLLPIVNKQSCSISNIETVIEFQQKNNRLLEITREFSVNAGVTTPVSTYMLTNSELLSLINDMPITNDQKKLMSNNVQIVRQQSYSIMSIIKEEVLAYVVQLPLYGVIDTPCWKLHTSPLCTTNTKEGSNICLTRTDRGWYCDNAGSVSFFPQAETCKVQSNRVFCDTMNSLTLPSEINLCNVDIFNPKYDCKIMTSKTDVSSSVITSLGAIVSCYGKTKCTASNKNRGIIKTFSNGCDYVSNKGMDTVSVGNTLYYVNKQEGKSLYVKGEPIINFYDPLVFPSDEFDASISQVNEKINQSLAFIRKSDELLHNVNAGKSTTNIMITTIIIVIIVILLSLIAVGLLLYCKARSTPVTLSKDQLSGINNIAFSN

Binder | Neutralization (IC50; ng/mL) RSV A2, plaque-reduction assay
B10 | 21 ng/mL
B1 | 123 ng/mL

Biological target: F protein on infectious RSV strain A2 (human respiratory syncytial virus …, UniProt P03420 26-574)
Test: cell-based or functional assay
Remark: another data set of the same source
Target sequence in this assay (P03420 26-574): as above

Binder | Neutralization (IC50; ng/mL) RSV A2, plaque-reduction assay
B2 | > 100000 ng/mL
B3 | 55 ng/mL
B4 | > 100000 ng/mL
B5 | > 100000 ng/mL
B7 | 695 ng/mL
B8 | 377 ng/mL
B9 | > 100000 ng/mL
